# Data from patent US20150353909A1 (ACADEMIA SINICA, published 2015).
# Legend:
# [1] = biological target: T1, Lys63-linked UB chains (Ub2-7) (UniProt P0CG48 1-76, isopeptide bond between the C-terminus of the distal UB and Lys63 of the proximal UB); test: GST pull-down, immunoblot
# T1 construct: Bought mixture of chain lengths Ub2-7; also called K63-linked UB chains; K63-linked ubiquitin chains
# Description: (§1) The GST pull-down assay and the detection of pulled-down products by immunoblotting has been previously described (Fatimababy et al., (2010) FEBS J. 277, 796-816; Lin et al., (2011) Plant Cell 23, 2754-2773). The Lys48- and Lys63-linked UB chains (Ub2-7) were purchased from Boston Biochem.
# [2] = biological target: T2, Lys48-linked UB chains (Ub2-7) (UniProt P0CG48 1-76, isopeptide bond between the C-terminus of the distal UB and Lys48 of the proximal UB); test: GST pull-down, immunoblot
# T2 construct: Bought mixture of chain lengths Ub2-7; also called K48-linked UB chains; K48-linked ubiquitin chains
# Description: as §1
Binder,binding result [1],binding result [2]
"GST-OTU10 (enzyme, also called OTU10 (GST tag); not shown: GST and His tags from pET42 vector) MVSHEENTSIVEWFLGPHPYTYPPYGIEMIHEDDEVAVAHHHHHHQSGEYYREYEDHRSSDVDNDEIIARTLQDDFLQLEIAESNDYSHQNQQQQHQQEGYTNNYSNNNNGYAWNDQSPAVDYSSEWIGNDNDQDGRSDDSVNVFSCSSPSDTDEYVYSWESDQCDADGEFGRRLNQMVPIPYIPKINGEIPPEEEAVSDHERLRNRLEMFDFTEVKVPGDGNCQFRALADQLYKTADRHKHVRRQIVKQLKSRPDSYQGYVPMDFSDYLRKMSRSGEWGDHVTLQAAADAYRVKIVVLTSFKDTCYIEILPTSQESKGVIFLSFWAEVHYNAIYLNRDTSETELQRKRKWWRFGN",no binding,no binding
"GST-OTU9 (enzyme, Full-length coding region in pET42, expressed in E. coli; also called OTU9 (GST fusion); not shown: GST and His tags from pET42 vector) MGYEPDPDALRWGLHDLEVCTLTNAGSCSSVTRYESGGGGTQGYVREGYNQPVTGYVDNDAVIAQFYQDELSRVARAEASGINSLSPTSVVAQDWPHPHQGQENQGEAIDITQESDILHNHNGNMEDKNVARIRFEGGQSSPSRDDDSVCSVEIEEESWSEVGKRLNQMIPIAHVPKINGELPSEDEQISDHERLFQRLQLYGLVENKIEGDGNCQFRSLSDQLYRSPEHHNFVREQVVNQLAYNREIYEGYVPMAYNDYLKAMKRNGEWGDHVTLQAAADLFGVRMFVITSFKDTCYIEILPHFQKSNRLICLSFWAEVHYNSIYPEGELPIPEGKKKKKYWVF",no binding,no binding

# Next, values leading:
binding result [1],binding result [2],Binder
no binding,no binding,"GST-OTU7a (enzyme, Full-length coding region in pET42, expressed in E. coli; also called OTU7a (GST fusion); not shown: GST and His tags from pET42 vector) MAKTKQQKSKPKKQPHQKQGKDCDLSQFRAQLDALGLKIIQVTADGNCFFRAIADQLEGNEDEHNKYRNMIVLYIVKNREMFEPFIEDDVPFEDYCKTMDDDGTWAGNMELQAASLVTRSNICIHRNMSPRWYIRNFEDTRTRMIHLSYHDGEHYNSVRSKEDACGGPARPVVIEADAKVSAASKQAKATESKSKNKADKCHVNAGAIKVVMSGSCCDNTEKAEQVLLQVNGDVDAAIEFLIADQGMESLTENDTETASASDTINPKHASDSPMENTEQAREELIEEESASGNNSETVQAKCTTQTDDKKIPRNKTCPCGSKKKYKSCCGTATGRSSVKLLVSQTMESKKGRKNLRRGTSNEVEANAPDVGALCI"
no binding,no binding,"GST-OTU3 (enzyme, Full-length coding region in pET42, expressed in E. coli; also called OTU3 (GST fusion); not shown: GST and His tags from pET42 vector) MELKSSSNNNILEQLRNGFARFELVSSPTASVSDSISSTSLPASFISTTKGNSYVFFARINSSMNRSPAAKKVEKYAVDRVKGDGRCLFRALVKGMAFNKGITLNPQRERDDADELRMAVKEVICNDPKEREKYKEALVAITVDESLKRFCQRIGRHDFWGGESELLVLSKLCKQPIIVYIPEHEHGRGGGYGPGFIPIQEYGSEFRGGWGKGKTNKNVVRLLYSGRNHYDLLR"
no binding,no binding,"GST-OTU4c (enzyme, Full-length coding region in pET42, expressed in E. coli; also called OTU4c (GST tag); not shown: GST and His tags from pET42 vector) MMICYSPITTCSRNAISIKRHLGSRLYGVVAHGSSKFSCYSLLSGLSRRHYTGFRVSVSNRPSSWHDKGLFGFAYTGVIVSLLVCYSSTSQSAYADSSRDKDANNVHHHSSDGKFHNGKRVYTDYSIIGIPGDGRCLFRSVAHGFCLRSGKLAPGEKMQRELADELRTRVADEFIQRRQETEWFVEGDFDTYVRQIRDPHVWGGEPELFMASHVLQMPITVYMKDDKAGGLISIAEYGQEYGKDDPIRVLYHGFGHYDALLLHESKASIPKSKL"
